Test results as given in patent publication US20190092852A1 (Genentech, published 2019).
Changes are numbered by the printed parent chain. Numbers in names are those of the source. Read-outs that look alike come from different tables or passages of the source. Values belong to the binder of their own block, whether it stands above or below them.

Tests used:
[1] = biological target: T1, human ST2L on HEK-BLUE IL-33/IL-1beta cells (human, UniProt Q01638 19-556); experiment: cell-based or functional assay
T1 sequence: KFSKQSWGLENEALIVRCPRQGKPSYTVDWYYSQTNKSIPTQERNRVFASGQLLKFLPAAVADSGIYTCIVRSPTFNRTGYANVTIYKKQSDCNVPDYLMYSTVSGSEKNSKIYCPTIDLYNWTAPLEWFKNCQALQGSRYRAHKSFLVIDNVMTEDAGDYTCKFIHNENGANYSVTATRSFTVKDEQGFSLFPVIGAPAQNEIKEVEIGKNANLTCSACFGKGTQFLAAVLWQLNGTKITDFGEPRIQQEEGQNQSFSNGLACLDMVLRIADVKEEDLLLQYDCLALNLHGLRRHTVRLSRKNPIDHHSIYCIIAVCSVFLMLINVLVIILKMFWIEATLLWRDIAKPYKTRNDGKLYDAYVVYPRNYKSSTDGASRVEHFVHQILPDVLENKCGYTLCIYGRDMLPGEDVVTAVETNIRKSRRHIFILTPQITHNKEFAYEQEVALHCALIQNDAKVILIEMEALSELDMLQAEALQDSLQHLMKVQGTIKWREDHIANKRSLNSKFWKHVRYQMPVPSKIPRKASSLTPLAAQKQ

[2] = biological target: T1, human ST2L on HEK-BLUE IL-33/IL-1beta …; experiment: cell-based or functional assay; remark: listed apart in the source
[3] = biological target: T2, human IL-33 (construct not stated) (human, UniProt O95760 112-270); experiment: cell-based or functional assay
T2 sequence (looked up): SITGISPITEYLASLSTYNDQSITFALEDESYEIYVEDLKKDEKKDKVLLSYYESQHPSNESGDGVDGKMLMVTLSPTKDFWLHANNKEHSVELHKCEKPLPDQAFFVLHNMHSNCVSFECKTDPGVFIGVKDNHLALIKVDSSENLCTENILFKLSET

[4] = biological target: T3, cyno IL-33 (construct not stated) (cynomolgus monkey, UniProt A0A2K5W3I1 112-269); experiment: SPR, BIACORE 3000, antibody captured on anti-human Fab, 25 C, 1:1 Langmuir model; lot 1
T3 construct: also called cynomolgus IL-33; cyno IL-33 (Genentech)
T3 sequence: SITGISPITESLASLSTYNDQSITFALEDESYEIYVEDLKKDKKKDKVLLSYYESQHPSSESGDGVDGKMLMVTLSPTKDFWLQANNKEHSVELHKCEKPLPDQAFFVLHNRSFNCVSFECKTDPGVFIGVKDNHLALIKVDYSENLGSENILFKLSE
Experimental: (§1) The binding kinetics of the bispecific antibody 10C12-IL13 KIH IgG4 to human IL-33, cyno IL-33, and human IL-13 was assessed using SPR on a BIACORE® 3000 (GE Healthcare). Anti-human Fab (GE Healthcare) was immobilized on a CM5 sensor chip via amine-based coupling according to the manufacturer's protocol. The bispecific antibody was captured and binding was measured to human IL-33 (Genentech), cyno IL-33 (Genentech), and human IL-13 (Peprotech). […] Sensograms for binding of cytokine were recorded using an injection time of 2 min with a flow rate of 30 μl/min, at a temperature of 25° C., and with a running buffer of 10 mM HEPES, pH 7.4, 150 mM NaCl, 3 mM EDTA, and 0.005% TWEEN®-20. After injection, disassociation of the ligand from the antibody was monitored for 600 sec in running buffer. The surface was regenerated between binding cycles with a 40 μl injection of 10 mM Glycine-HCl pH 2.1. After subtraction of a blank which contained running buffer only, sensograms observed for cytokine binding to the bispecific antibody were analyzed using a 1:1 Langmuir binding model with software supplied by the manufacturer to calculate the kinetics and binding constants, including the dissociation constant (KD).

[5] = biological target: T2, human IL-33 (construct not stated); experiment: as above
Experimental: as §1

[6] = biological target: T4, human IL-13 (Peprotech) (human, UniProt P35225 35-146); experiment: as above
Experimental: as §1

[7] = biological target: T3, cyno IL-33 (construct not stated); experiment: SPR, BIACORE 3000, antibody captured on anti-human Fab, 25 C, 1:1 Langmuir model; lot 2
Experimental: as §1

[8] = biological target: T2, human IL-33 (construct not stated); experiment: as above
Experimental: as §1

[9] = biological target: T4, human IL-13 (Peprotech); experiment: as above
Experimental: as §1

[10] = biological target: T3, cyno IL-33 (construct not stated); experiment: SPR, BIACORE 3000, antibody captured on anti-human Fab, 25 C, 1:1 Langmuir model; lot 3
Experimental: as §1

[11] = biological target: T2, human IL-33 (construct not stated); experiment: as above
Experimental: as §1

[12] = biological target: T4, human IL-13 (Peprotech); experiment: as above
Experimental: as §1

[13] = biological target: T3, cyno IL-33 (construct not stated); experiment: SPR Biacore 3000, captured by anti-human Fab, 25 C, mean of three lots
Experimental: (§2) The binding kinetics of the bispecific antibody 10C12-IL-13 KIH IgG4 to human IL-33, cyno IL-33, and human IL-13 was assessed using BIACORE® 3000 SPR (FIG. 20).
as §1

[14] = biological target: T2, human IL-33 (construct not stated); experiment: as above
Experimental: as §2, §1

[15] = biological target: T4, human IL-13 (Peprotech); experiment: as above
Experimental: as §2, §1

[16] = biological target: T5, human IL-33 N-His (human); experiment: cell-based or functional assay
T5 chain: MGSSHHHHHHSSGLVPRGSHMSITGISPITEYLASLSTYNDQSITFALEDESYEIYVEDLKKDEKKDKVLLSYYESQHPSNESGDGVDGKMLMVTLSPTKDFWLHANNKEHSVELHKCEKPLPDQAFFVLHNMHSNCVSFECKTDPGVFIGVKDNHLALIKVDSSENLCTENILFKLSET

T4 sequence (P35225 35-146 limits assumed): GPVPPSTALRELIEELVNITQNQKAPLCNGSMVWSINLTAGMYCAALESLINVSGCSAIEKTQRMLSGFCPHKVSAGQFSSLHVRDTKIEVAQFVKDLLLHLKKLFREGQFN

EC50 (SEAP reporter OD 620, HEK-BLUE IL-33/IL-1beta cells) [1]: 0.004 nM
B1: cyno IL-33 N-His (ligand)
chain: T5 chain with Y32S, E64K, N81S, H105Q, M133R, H134S, S135F, S164Y, C169G, T170S

EC50 (SEAP reporter OD 620, HEK-BLUE IL-33/IL-1beta cells) [2]: 0.0055 nM
B2: human IL-33 (R&D Systems, #3625-IL-010/CF) (ligand, UniProt O95760 112-270, looked up)
chain: T2 sequence (looked up)

IC50 (read off the curve); phospho-p38 MFI in CD123+ basophils (average from 2 donors), 10 ng/ml IL-33 [3]: ~0.5 nM
Kd [4]: 0.107 nM
koff [4]: 7.2e-05 s⁻¹
kon [4]: 670000 M⁻¹ s⁻¹
Kd [5]: 0.01 nM
koff [5]: 1.1e-05 s⁻¹
kon [5]: 1.1e+06 M⁻¹ s⁻¹
Kd [6]: < 0.01 nM
koff [6]: 2e-06 s⁻¹
kon [6]: 1.49e+06 M⁻¹ s⁻¹
Kd [7]: 0.062 nM
koff [7]: 4e-05 s⁻¹
kon [7]: 650000 M⁻¹ s⁻¹
Kd [8]: 0.026 nM
koff [8]: 3e-05 s⁻¹
kon [8]: 1.14e+06 M⁻¹ s⁻¹
Kd [9]: < 0.01 nM
koff [9]: 4e-06 s⁻¹
kon [9]: 1.47e+06 M⁻¹ s⁻¹
Kd [10]: 0.059 nM
koff [10]: 4.1e-05 s⁻¹
kon [10]: 700000 M⁻¹ s⁻¹
Kd [11]: 0.041 nM
koff [11]: 4e-05 s⁻¹
kon [11]: 990000 M⁻¹ s⁻¹
Kd [12]: < 0.01 nM
koff [12]: 6e-06 s⁻¹
kon [12]: 1.45e+06 M⁻¹ s⁻¹
Kd [13]: 0.076 nM
Kd [14]: 0.025 nM
Kd [15]: < 0.01 nM
IC50; SEAP reporter, HEK-BLUE IL-33 cells, 15 pM human IL-33 N-His, 20 h [16]: 25.4 pM
B3: 10C12.38.H6.87Y.58I/IL-13 IgG4 (bispecific antibody)
heavy 1: EVQLVESGGGLVQPGGSLRLSCAASGFTFSSFSMSWVRQAPGKGLEWVATISGGKTFTDYVDSVKGRFTISRDDSKNTLYLQMNSLRAEDTAVYYCTRANYGNWFFEVWGQGTLVTVSSASTKGPSVFPLAPCSRSTSESTAALGCLVKDYFPEPVTVSWNSGALTSGVHTFPAVLQSSGLYSLSSVVTVPSSSLGTKTYTCNVDHKPSNTKVDKRVESKYGPPCPPCPAPEFLGGPSVFLFPPKPKDTLMISRTPEVTCVVVDVSQEDPEVQFNWYVDGVEVHNAKTKPREEQFNSTYRVVSVLTVLHQDWLNGKEYKCKVSNKGLPSSIEKTISKAKGQPREPQVYTLPPSQEEMTKNQVSLSCAVKGFYPSDIAVEWESNGQPENNYKTTPPVLDSDGSFFLVSRLTVDKSRWQEGNVFSCSVMHEALHNHYTQKSLSLSLG
light 1: EIVLTQSPATLSLSPGERATLSCRASESVAKYGLSLLNWFQQKPGQPPRLLIFAASNRGSGIPARFSGSGSGTDFTLTISSLEPEDFAVYYCQQSKEVPFTFGQGTKVEIKRTVAAPSVFIFPPSDEQLKSGTASVVCLLNNFYPREAKVQWKVDNALQSGNSQESVTEQDSKDSTYSLSSTLTLSKADYEKHKVYACEVTHQGLSSPVTKSFNRGEC
heavy 2: not shown
light 2: DIVLTQSPDSLSVSLGERATINCRASKSVDSYGNSFMHWYQQKPGQPPKLLIYLASNLESGVPDRFSGSGSGTDFTLTISSLQAEDVAVYYCQQNNEDPRTFGGGTKVEIKRTVAAPSVFIFPPSDEQLKSGTASVVCLLNNFYPREAKVQWKVDNALQSGNSQESVTEQDSKDSTYSLSSTLTLSKADYEKHKVYACEVTHQGLSSPVTKSFNRGEC
notes: Knob-in-hole human IgG4 made in E. coli: anti-IL-33 arm as hole, anti-IL-13 arm (lebrikizumab CDRs; Q1E heavy, M4L light) as knob; also called 10C12-IL-13 KIH IgG4; 10C12-IL13 KIH IgG4
